{"source": "IntAct's records for PubMed 26192437", "parents": {"B1": {"name": "CDK5 regulatory subunit-associated protein 2 (Homo sapiens), Q96SN8 (parent)", "chain": "MMDLVLEEDVTVPGTLSGCSGLVPSVPDDLDGINPNAGLGNGLLPNVSEETVSPTRARNMKDFENQITELKKENFNLKLRIYFLEERMQQEFHGPTEHIYKTNIELKVEVESLKRELQEREQLLIKASKAVESLAEAGGSEIQRVKEDARKKVQQVEDLLTKRILLLEKDVTAAQAELEKAFAGTETEKALRLRLESKLSEMKKMHEGDLAMALVLDEKDRLIEELKLSLKSKEALIQCLKEEKSQMACPDENVSSGELRGLCAAPREEKERETEAAQMEHQKERNSFEERIQALEEDLREKEREIATEKKNSLKRDKAIQGLTMALKSKEKKVEELNSEIEKLSAAFAKAREALQKAQTQEFQGSEDYETALSGKEALSAALRSQNLTKSTENHRLRRSIKKITQELSDLQQERERLEKDLEEAHREKSKGDCTIRDLRNEVEKLRNEVNEREKAMENRYKSLLSESNKKLHNQEQVIKHLTESTNQKDVLLQKFNEKDLEVIQQNCYLMAAEDLELRSEGLITEKCSSQQPPGSKTIFSKEKKQSSDYEELIQVLKKEQDIYTHLVKSLQESDSINNLQAELNKIFALRKQLEQDVLSYQNLRKTLEEQISEIRRREEESFSLYSDQTSYLSICLEENNRFQVEHFSQEELKKKVSDLIQLVKELYTDNQHLKKTIFDLSCMGFQGNGFPDRLASTEQTELLASKEDEDTIKIGEDDEINFLSDQHLQQSNEIMKDLSKGGCKNGYLRHTESKISDCDGAHAPGCLEEGAFINLLAPLFNEKATLLLESRPDLLKVVRELLLGQLFLTEQEVSGEHLDGKTEKTPKQKGELVHFVQTNSFSKPHDELKLSCEAQLVKAGEVPKVGLKDASVQTVATEGDLLRFKHEATREAWEEKPINTALSAEHRPENLHGVPGWQAALLSLPGITNREAKKSRLPILIKPSRSLGNMYRLPATQEVVTQLQSQILELQGELKEFKTCNKQLHQKLILAEAVMEGRPTPDKTLLNAQPPVGAAYQDSPGEQKGIKTTSSVWRDKEMDSDQQRSYEIDSEICPPDDLASLPSCKENPEDVLSPTSVATYLSSKSQPSAKVSVMGTDQSESINTSNETEYLKQKIHDLETELEGYQNFIFQLQKHSQCSEAIITVLCGTEGAQDGLSKPKNGSDGEEMTFSSLHQVRYVKHVKILGPLAPEMIDSRVLENLKQQLEEQEYKLQKEQNLNMQLFSEIHNLQNKFRDLSPPRYDSLVQSQARELSLQRQQIKDGHGICVISRQHMNTMIKAFEELLQASDVDYCVAEGFQEQLNQCAELLEKLEKLFLNGKSVGVEMNTQNELMERIEEDNLTYQHLLPESPEPSASHALSDYETSEKSFFSRDQKQDNETEKTSVMVNSFSQDLLMEHIQEIRTLRKRLEESIKTNEKLRKQLERQGSEFVQGSTSIFASGSELHSSLTSEIHFLRKQNQALNAMLIKGSRDKQKENDKLRESLSRKTVSLEHLQREYASVKEENERLQKEGSEKERHNQQLIQEVRCSGQELSRVQEEVKLRQQLLSQNDKLLQSLRVELKAYEKLDEEHRRLREASGEGWKGQDPFRDLHSLLMEIQALRLQLERSIETSSTLQSRLKEQLARGAEKAQEGALTLAVQAVSIPEVPLQPDKHDGDKYPMESDNSFDLFDSSQAVTPKSVSETPPLSGNDTDSLSCDSGSSATSTPCVSRLVTGHHLWASKNGRHVLGLIEDYEALLKQISQGQRLLAEMDIQTQEAPSSTSQELGTKGPHPAPLSKFVSSVSTAKLTLEEAYRRLKLLWRVSLPEDGQCPLHCEQIGEMKAEVTKLHKKLFEQEKKLQNTMKLLQLSKRQEKVIFDQLVVTHKILRKARGNLELRPGGAHPGTCSPSRPGS"}}, "data": [{"variants_of": "B1", "conditions": "with tbg1_human TUBG1, P23258", "values": [{"variant": "S140A", "effect of a mutation on the interaction": "decreasing interaction strength"}]}]}
